The RNAGym collection of RNA variant scans (doi:10.1073/pnas.2313332121)

B1: TPR t1 (parent)
chain: GACCAAUCUGCCCUCAGAGCUCGAGAACAUCUUCGGAUGCAGAGGAGGCAGGCUUCGGUGGCGCGAUAGCGCCAACGUCCUCAACCUCCAAUGCAUCCCACCACAUGAUGAUGCCUGAAGAGCCUUGGUUUUUUG

Variants of: B1
Assay: polymerase ribozyme fitness, log enrichment relative to wild type (log ratio); higher = more active; in vitro selection for triplet polymerase activity
Summary of the method: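 Mutant libraries were PCR-built and transcribed for each subunit of a heterodimeric triplet polymerase ribozyme and selected for one round in triplicate at −7 °C, frozen, before gel excision of extended constructs and streptavidin-bead capture. Input and output libraries were Illumina-sequenced, keeping genotypes with ≥10 input reads and ≥1 read per output. Fitness is a logarithmic ratio of genotype to wild-type enrichment, in base 2, using inverse-variance-weighted replicate averages.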

| Variant | polymerase ribozyme fitness (log ratio) |
| --- | --- |
| GACCAAUCUGCCCUCAGAGCUCGAGAACAUCUUCGGAUGCAGAGGAAGAAGGCUUCGGUCGCGCGAUAGCGCCAACGUCCUCAACCUCCAAUACAUCCCACCACAUGAUGAUCCCUGAAGAGCCUUUGUUUUUUG [G47A C49A G60C G93A G113C G127U] | -6.14 |
| GACCAAUCUGCCCUCAAAGCUCGAGAACAUCUUCGGAUGCAGAGGAGGCAGGCUUCGGUGGCGCGAUAUCGCCAACGUCCUCAACCUCCAAUGCAUCCCACCACAUGAUGAUGCCUGAAGAGCCUUGGUUUUUUG [G17A G69U] | -1.14 |
| GACCAAUCUGCCCUCAGAGCUCGAGAACAUCUUCGGAUGCAGAUGAGGCAGGCUUCGGUGGCGCGAUAGCGGCAACGUCCUCAAUCUCCAAUGCAACCCACCACAUGAUGAUGCCUGAAGGGCGUUGGUUUUUUG [G44U C72G C85U U96A A121G C124G] | -3.64 |
| GACCAAUCUGCCCCCAGAGCUCGAGAACAUCUUCGGAUGCAGAGGAGGCAGGCUUCGGUGGCGCGAUAGCGCCAACGUCCUCAACCUCCAAUGCAUCCCACCACAAGAUAAAGCCUGAAGAGCCUUGGUUUUUUG [U14C U106A G110A U112A] | -3.36 |
| GACCAAUGUGCCCUCAGAGCUCGAGAACAUCUUCGGAUGCAGAGGAGGCAGGCUUCGGUGGCGCGAUGGCUCCAACGUCCUCAACCUCCAAUGCAUCCCACCACAUGGUGAUGCCUGAAGAGCCUUGGUUUUUUG [C8G A68G G71U A108G] | -4.73 |
| GACCAAUCUGCCCUCAGAGCUCGAGAACAUCUUCGGAUGCAGAGGAGGCAGGCUUCGGUGGCGCGCUAGCGCCAACGUCCUCAACCUCCAAUGCGUCCCACCACAUGAUGAUGCCUGAAGAGCCUUGGUUUUUUG [A66C A95G] | -1.6 |
| GACUAAUCUGCCCUCAGAGCUCGAGAACAUCUUCGGAUGCAGAGGAGGCAGGCUUCGGUGGCGCGAUAGCGCCAACGUCCUCAACCUCCAAUGCAUCCCACCACAUGAUGAUGCCUGAAAAGCCUUGGUUUUUUG [C4U G120A] | 0.077 |
| GACCAAUCUGCCCUCAGAGCUCGAGAACAUUUUCGGAAGCAGAGGAGGCAGGCUUCGGUGGCGCGAUCGCGUCAAGGUCCUCAACCUCCAAUGCAUCCCACCACAUGAUGAAGCCUCAAGAGCCUUGGUUUUUUG [C31U U38A A68C C72U C76G U112A G117C] | -6.6 |
| GACCAAUCUGCCCUCAGAGCUCGAGAACAUCUUCGGAUGCAGAGGAGGCAGGCUUCGGUGGUGCGAUAGCGCCAACGUCCGCAACCUCCAAUGCAUCCCACCACAUGAUGAUGCCUGAAGAGCCUUGGUUUUUUG [C62U U81G] | -3.67 |
| GACCAAUCUGCCCUCAGAGCUCGAGAACAUCUUCGGAUGCAGAGGAGGCAGGCUUCGAUGACGCGAUAGCGCAAACGUCCUCAACCUCCAAAGCAUCCCACCACAUGAUGAUGCCUGAAGAGCCUUGGUUUUUUG [G58A G61A C73A U92A] | -5.1 |
| GACCAAUCUGCCCUCAGAGCUCGAGAACAUCUUCGGAUAUAGAGGAGGCAGGCUUCGGUGGCGCGAUAGCGGCAACGUCCUCAACCUCCAAUGCAUCCCACCACAUGAUGAUGCCUGAAGAGCCUUGGUUUUUUG [G39A C40U C72G] | -2.72 |
| GACCAAUCUGCCCUCAGAGCUCGAGAACAUCUUCGGAUGCAGAGGAGGCAGGCUUCGGCGGCGCGAUAUCGCCAACGUCCACAACCUCCAAUGCAUCCCACCACAUGAUGAUGCCUGAAGAGCCUUGGUUUUUUG [U59C G69U U81A] | -1.48 |
| GACCAAUCUGCCCUCAGAGCUCGAGAACAUCUUCGUAUGCAGAGGAGUCAGGCUUCGGUGGCGCGAUAGCGCCAACGUCCUCAACCUCCAAUGCAUCCCACCACAUGAUGAUGCCUGAAGAGCCUUGGUUUAUUC [G36U G48U U132A G135C] | -1.44 |
| GACCAAUCUGCCCUCAGAGCUCGAGAACAUCUUCGGAUGCAGAGGAGACAGGCUUCGGUGGCGCGAUAGCGCCAACGUCCACAACCUCCAAUGCAUCCCACUACAUGAUGAUGCCUGAAGAGCCUUGGUUUUUUG [G48A U81A C102U] | -4.06 |
| GACCAAUCUGCCCUCAGAGCUCGAGAACAUCUUCGGAUGCAGAGGAGGGAGGCUUCGGUGGCGCGAUAGCGCCAACGUCCUCAACCUCCAAUGCAUCCCACCACAUGAUGAUGCCGGAAGAGCCUUGGUUUUUUG [C49G U116G] | -2.61 |
| GACCAAGCUGCCCUCAGAUCUCGAGAACAUCUUCGGAUGCAAAGGAGGCAGGCUUCGGUGACGCGAUAGCGCCAACGUCCUCAACCUCCAAUGCAUCCCACCACAUGAUGAUGCCUGAAGAGCCUUGGUUUUUUG [U7G G19U G42A G61A] | -2.64 |
| GACCAAUCUGCGCUCAGAGCUCGAGAACAGCUUCGGAUGCAGAGGAGGCAGGCUUCGGUGGCGCGAUAGCGGCAACGUCCUCAACCUCCAAUGCAUCCCAACACAAGAUGAUGCCUGAUGAGUCUUGGUUUUUUG [C12G U30G C72G C101A U106A A119U C123U] | -5.26 |
| GACCAAUCUGCCCUCAGAGCUCGAGAACAUCUUCGGAUGCAGAGGAGGCAGGCUUCGGUGGCGCGAUAGCUGCAACGUCCUCAACCUCCAAUGCAUCCCACCACAUGAUGAUGCCUGAAGAGACUUGGUUUUUUG [G71U C72G C123A] | -2.68 |
| GACCAAUCUGCCCUGAGAGCUCGAGAACAUCUUCGGAUGCAGAGGAGGCAGGCUUCGGUGGCGCGAUAGCGCCAACGUCCUCAACCUCCAAUGCCUCCCACCACAUGAUGAUGCCUGAUGAGCCUUGGUUUUUUG [C15G A95C A119U] | -3.82 |
| GACCAAUCUGCCCUCAGAGCUCGAGAACAUCUUCGGAUGCAGAGGAAGCAGGCUUCGGUGGCGCGAUAGCGCCAACGUCCUCAACCUCCAAUGCAACGCACCACAUGAUGAUGCCUGAAGAGCCUUGGUUUUUUG [G47A U96A C98G] | -6.21 |
| GACCAAUCUGCCAUCAGAGCUCGAGAACAUCUUCGGAUGCAGAGGAGGCAGGCUUCGGUGGCGCGAUAGCGCCAACGUCCUAAACCUCCAAUGUAUCCCACCACAUGAUAAUGCCUGAAGAGCCUUGGUUUUUUG [C13A C82A C94U G110A] | -3.09 |
